From the nanobody polyreactivity screen of Harvey et al. (2022)

Experiment: yeast display, Sf9 membrane polyspecificity reagent, FACS + sequencing; frameworks hold sequencing errors
In short: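 Nanobodies from a synthetic yeast display library (Saccharomyces cerevisiae BJ5465), induced 36–48 hours with galactose, were stained 1 hour at 4 °C with 10% biotinylated, detergent-solubilized Sf9 membrane reagent, enriched on streptavidin microbeads, then FACS-sorted. Anti-HA (expression) and streptavidin (reagent binding) fluorescence set low and high (top ~1%) gates. Polyreactivity labels come from the gate of origin. Genes were colony-PCR amplified, MiSeq 2 × 250 sequenced and filtered by CDR length.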

Row | Sequence | polyreactivity (PSR sort gate)
1 | QVQLVESGGGLVQAGGSLRISCAASGSTFPYNAMGWYRQAPGKERELVATIDRGSTTNYADSVKGRFTISRDNAKNTVYLQMNSLKPEDTAVYYCAADANGYYNYDYWGQGTQVTVSS | low polyreactivity
2 | QVQLVESGGGLVQAGGSLRLSCAASGLTFPYYAMGWYRKAPGKERELVAGISDSGGSTYYADSVKGRFTISRDNAKNTVYLQMNSLKPEDTAVYYCAAQGVDSYYENDYWGQGTQVTVSS | high polyreactivity
3 | QVQLVESGGGLVQAGGRLRLICAASGSILRYAMGWYIQAPGKERELVAAISYGGGSTYYADSVKGRFTISRDNAKNTVYLQMNSLKPEDTAVYYCNARQYVWYPYEYWGQGTQVTVSS | high polyreactivity
4 | QVQLVESGGGLVQAGGSLRLSCAASGLIFSYKTMGWYRQAPGKERELVAAITSGGRTYYADSVKGRFTISRDNAKNTVYLQMNSLKPEDTAVYYCAVLSKWRYDYWGQGTQVTVSS | high polyreactivity
5 | QVQLVESGGGLVQAGGSLRLSCAASGRTFPNNAMGWYRQAPGKERELVAVITWSGGSTYYADSVKGRFTISRDNAKNTVYLQMNSLKPEDTAVYYCATDYTGKWKDHYYYWGQGTQVTVSS | low polyreactivity
6 | QVQLVESGGGLVQAGGSLRLSCAASGSIFGWYVMGWYRQAPGKERELVAAISSVGSTYYADSVKGRFTISRDNAKNTVYLQMNSLKPEDTAVYYCAKLRYPYLFWDDSEYWGQCTQVTVSS | low polyreactivity
7 | QVQLVESGGGLVQAGGSLRLSCAASGITFDYYAMGWYRQAPGKERELVAAISWGGGSTYYADSVKGRFTISRDNAKNTVYLQMNSLKPEDTAVYYCAADIVSSPSSYVPPGDYWGQGTQVTVSS | low polyreactivity
8 | QVQLVESGGGLVQAGGSLRLSCAASGGTFVQYVMGWYRPAPGKERELVAAISASGGRTYYADSVKGRFTISRDNAKNSVYLQMNSLKPEDTAVDYCAAERKGSVTYEYDYWGQGTQVSVSS | high polyreactivity
9 | QVQLVESGGGLVQAGGSLRLSCAASGSIFSDNAMGWYRQAPGKERELVAAISWIGDSTDYADSVKGRFTISRDNAKNTVYLQMNSLKPEDTAVYYCAGDAKVVSPRYRANDIGMYYWGQGTQVTVSS | low polyreactivity
10 | QVQLVESGGGLVQAGGSLRLSCAASGLTFASYAMGWYRQSPGKERELVARISRSGGSTYYADSVKGRFTISRDNAKNTVYLQMNSLKPEDTAVYYCAARNSYGNWRYYYWGQGTQVTVSS | high polyreactivity
11 | QVQLVESGGGLVQAGGSLRLSCAASGFTFYGYGMGWYRQAPGKERELVAGISSGGGSTIYADSVKGRFTISRDNAKNTVYLQMNSLKPEDTAVYYCAADYWPYSYDTYPAEFDYWGQGTQVTVSS | low polyreactivity
12 | QVQLVESGGGLVQAGGSLRLSCAASGFIFPGNVMGWYRQAPGKERELVAAITWSGGSTYYADSVKGRFTISRDNAKNTVYLQMNSLKPEDTAVYYCNADAFSFFGYLERMEYWGQGTLVTVSS | low polyreactivity
13 | QVQLVESGGGLVQAGGSLRLSSAVSGNTFGPYDMGWYRQAPGKERELVAGNTSGGSTYYADSVKGRFTISLDNAMNTVYLQMNSLKPEDTAVYYCAADYFLWVYWYDYWGQGTQVTVSS | high polyreactivity
14 | QVQLVESGGGLVQAGGSLRLSCAASGSIFYFNAMGWYRQAPGKERELVASITSGGSTNYADSVKGRFTISRDNAKNTVYLQMNSLKPEDTAVYYCNARFPYLSRWLVRGLASYDYWGQGTQVTVSS | low polyreactivity
15 | QVHLVESGGGLVQAGGSLRLSCAASGNIIPGNAMGWYRQAPGKERELVAAISYSGVRTHYADSVKGRFTISRDNAKNTVYLQMNSLKPEDTAVYYCAASGEQDYDYWGQGTQVTVSS | low polyreactivity
16 | QVQLVESGGGLVQAGGSLRLSCAASGRIFGFNAMGWYRQAPGKERQLVAAISGRSGRTYYADSVKGRFTISRDNAKNTVYLQLNSLIPEDTAVYYCNTVGYRGPSWYVYWGQGTQVTVSS | high polyreactivity
17 | QVQHVESGGGLVQAGGSLRLSCAASGFTFPSYAMGWYRQAPGKERELVAGISRGGTRTYYADSVKGRFTISRDNAKNTVYLQMYSLKPEDTAVYYCAATHGLRIRFPGDYWGQGTQVTVSS | high polyreactivity
18 | QVQLVESGGGLVQAGGSLRLSCAASGYIFNKYVMGWYRQAPGKERELVAAISASGGSTYYADSVKGRFTISRDNAKNTVYLQMNSLKPEDTAVYYCAATLYRRMDYWGQGTQVTVSS | high polyreactivity
19 | QVQLVESGGGLVQAGGSLRLSCAASGLTFRGNVMGWYRQAPGKERELVAAISRSGNTYYADSVKGRFTISRDNAKNTVYLQMNSLKPEDTAVYYCAAQSVRWYSSFKYYYWGQGTQVTVSS | high polyreactivity
20 | QVQLVESGGCLVQAGGSLRLSCAASGFTFSRYNMGWYRQAPGKESELVATISWSGSRTYYADSVKGRFTISRDNAKNTVYLQINSLKPDDTAFYYCNFAPHRQVFYTGQYDYWGQGTQVTVSS | high polyreactivity
21 | QVQLVESGGGLVQAGGSLRLSCAASGITFTPYAMGWYRQAPGKERELVAAITSGGSTNYADSVKGRFTISRDNAKNTVYLQMNSLKPEDTAVYYCAAGRWPAPWYTRNYWGQGTQVTVSS | low polyreactivity
22 | QVQLEESGGGLVQAGGSLRLICAASGIFFIYAMGWYRQARGKERELVADIDSGGPTYYADSVKGRFTISRDNAKNTVYLQMNRLQPEDTAVYYCAFDYSNVDLYSLLFYESDYWGQGTQVTVSS | low polyreactivity

Row | Sequence | polyreactivity (PSR sort gate)
23 | QVQLVESGGGLVQAGGSLRLSCAASGSTFPRYAMGWYRQAPGKERELVAAISRSGTTTYYADSVKGRFTISRDNAKNTVYLQMNSLKPEDTAVYYCAKRHYARYDYWGQGTQVTVSS | high polyreactivity
24 | QVQLVESGGGLVQAGGSLRLICAASGFSLYRNSMGWYRQAPGTERELVAAISSSGGRTYYADSVKGRFTISRDNAKNTVYLQMNSLKPEDTAVYYCAADFYRYGPQLGYWGQGTQVTVSS | high polyreactivity
25 | QVQLVESGGGLVQAGGSLRLSCAASGRIFVRNTMGWYRQAPGKERELVAAINSGGSTYYADSVKGRFTISRDNENNTVYLQMNSLKPEDTAVYYCAGQFYLFYEYDYWGQGTQVTVSS | high polyreactivity
26 | QVQLVESGGGLVQAGGSLRLSCAASGRIFQHNTMGWYRQAPGKERDFVAAIRRSGGSTYYADSVKGRFTISRDNAKNTVYLQMNSLKPEDTAVYYCAARDYPTGTRRWGGGDSWGQGTEVTVSS | low polyreactivity
27 | QVQLVESGGGLVQAGGSLRLSCAASGRSFNPYAMGWYRQAPGKERELVAAITNSGGSTYYADSVKVRFTISRDTAMNTFYLQMNSLKPEDTAVYYCNARRYPRYYYWGQGTQVTGSS | high polyreactivity
28 | QVQLVESGGGLVHAGGSLRLSCAASGRTFVLYVMGWYRQAPGKETEFVADINAGGGSTYYADSVKGRFTISRDNAKNTVYLQMNSLKPEDTAVYYCAATRVLGQLFRFGYWGQGTQVSVSS | low polyreactivity
29 | QVHLVESGGGLVQAGGSLRLSCAASGFTFTLYAMGWYRQAPGKERELVAAIYFSGGNTYYADSVKGRFTISRDNAKNTVYLQMNSLKPEDTAVYYCAAEYYPSASYYYGWYTIFWLITRDDYYWGQGTQVTVSS | high polyreactivity
30 | QVQLVESGGGLVQAGGSLRLSCAAYGLTFPYYVMGWYRPAPGKERELVAAISSSGGSTYYADSVKGRFTISRDNAKNTVYLQMNSLKPEDTAVYYCAAVEIYLAYDLPYWSEMDYWGQGTQVTVSS | low polyreactivity
31 | QVQLVESGGGLVQAGGSLRLSCAASGSTFYDNAKGWYRPAPGKERELVAAISYSGASTYYADSVKGRFTISRDNAQNTVYLQMNSLKPEDTAVYYCSKTFYSLYWGQGTQVTVSS | low polyreactivity
32 | QVQLVESGGGLVQAGGSLRISCAASGSTFYIYAMGWYRPAPGKERELVAAIRRSGGSTYYADSVKGRFTISRDNAKNTVYLQMNSLKPEDTAVYYCATRYLWRPRPYDYWGQGTQVTVSS | high polyreactivity
33 | QVQLVESGGGVVQAGGSLRISCAASGSTFAANAMGWYRQAPGKERELVAAISTSGGRSYYADSVKGRFTISRDNAKNTLYLQMNSLKPEDSAGYYCAAYSRTSDRDFDYWGQGTQVTVSS | high polyreactivity
34 | QVQLVESGGGLVQAGGSLRLSCAASGIIFHLYAMGWYRPAPGKERELVAAISWNGSSTYYADSVKGRFTISRDNAKNTVYLQMNSLKPEDTAVYYCAASYGYFEDYGYWGQGTQVTVSS | low polyreactivity
35 | QLQLVESGGGLVQAGGSLRLSCAASGFTFGVYAMGWYRQAPGKERELVAAISTTVGSTYYADSVKGRYTISRDNAKNTVYLQMNSLKPEDTAVYYCAAEYTGYISYYIYEDWGQGTQVTVSS | low polyreactivity
36 | QVQRVESGGGLVQAGGSLRLSCAASGRISSWNAMGWYRQAPGKERELVATISRRGGSTYYADSVKGRFTISRDNAKNTVYFQMNSLKQEDTAVYYCAKSSWTYGAYNYWGQGTQVTVSS | high polyreactivity
37 | QVQLVESGGGLVQAGGSLRLSCAASGYTFRHYAMGWYRQAPGKERELVAAISRSGGRTYYADSVKGRFTISRDNAKNTVYLHMNSLKPEDTAVYYCAADRVFGSSYLSGFDYWGQGTQGTVSS | low polyreactivity
38 | QVQLLESGGGLVQAGGSLRLSCAASGRIFGYYTMGWYRQAPGKERELVAGITRRGGRTYYADSVKGRFTISRDNAKNTVYLEMNSLKPEDTAGYYCAVRSGVNFYYWGQGTQVTVSS | high polyreactivity
39 | QVQLVESGGGLVQAGGSLRLSCAASGSIFFFYDMGWYRKATGKERELVAAISSSGTRTYYADSVKGRFTISRDNAKNTVYLQMNSLKPEDTAVYYCAVVYPSENYYRYDYWGQVTQVTVSS | high polyreactivity
40 | QVQLVESGGGLVQAGGSLRLSCAASGRTFLYYAMGWSRQAPGKEMELVAAIRRGSSTYYADSVKGRFTISRDNAKITVYLQRNCPKPEDTAVYYCAARSFAITKYGSYDYWGQGTQVTVSS | high polyreactivity
41 | QVQLVESGGGLVQAGGSLRLSCAASGRTFSRNTMGWYRQAPGKERELVAAIRSGGRTDYADSVKGRFTISRDNAKNTVYLQMNSLKPEDTAVYYCATVAGVSRWRGGYWGQGTQVTVSS | low polyreactivity
42 | QVQLVESGGGLVQAGGSLRLSCAASGSIFTLNAMGWYRQATGKEREFVAAITLRSGSTYYADSVKGRFTISRDNAKNTVYLQMNSLKPEDTAVYYCAARRTRYIYYYWGQGTQVTVSS | high polyreactivity
43 | QVQLVESGGGLVQAGGSLRLSCAASGSTFSSNPMGWYRQAPGKERELVAAISVNGGSTNYADSVKGRFTISRDNAKNTVYLQMNSLKPVDTAVYYCAAEPAKVAFYRGDYWGQGTQVTVSS | low polyreactivity
